Data taken from patent US20220332811A1 (NOVAROCK BIOTHERAPEUTICS, published 2022).

T1: human IL-12 protein (human, UniProt P29459 23-219; P29460 23-328)
T1 construct: Recombinant protein; also called hIL12; hIL-12
T1 sequence (looked up) 1: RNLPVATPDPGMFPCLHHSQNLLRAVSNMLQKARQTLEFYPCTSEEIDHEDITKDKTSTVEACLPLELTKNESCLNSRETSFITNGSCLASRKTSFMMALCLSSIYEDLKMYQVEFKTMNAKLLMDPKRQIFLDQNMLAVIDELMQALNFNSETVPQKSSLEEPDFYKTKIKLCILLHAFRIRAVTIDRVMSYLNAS
T1 sequence (looked up) 2: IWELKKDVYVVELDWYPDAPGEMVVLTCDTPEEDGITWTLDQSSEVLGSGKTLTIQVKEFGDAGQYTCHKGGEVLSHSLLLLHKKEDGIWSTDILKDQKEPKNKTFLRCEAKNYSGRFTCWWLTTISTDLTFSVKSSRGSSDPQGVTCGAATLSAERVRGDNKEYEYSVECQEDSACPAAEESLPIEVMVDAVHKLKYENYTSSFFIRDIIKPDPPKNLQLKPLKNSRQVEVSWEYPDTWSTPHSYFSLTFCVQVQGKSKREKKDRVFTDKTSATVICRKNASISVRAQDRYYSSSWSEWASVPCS

T2: human p40 subunit protein (human, UniProt P29460 23-328)
T2 construct: p40 subunit alone; also called hp40
T2 sequence (looked up): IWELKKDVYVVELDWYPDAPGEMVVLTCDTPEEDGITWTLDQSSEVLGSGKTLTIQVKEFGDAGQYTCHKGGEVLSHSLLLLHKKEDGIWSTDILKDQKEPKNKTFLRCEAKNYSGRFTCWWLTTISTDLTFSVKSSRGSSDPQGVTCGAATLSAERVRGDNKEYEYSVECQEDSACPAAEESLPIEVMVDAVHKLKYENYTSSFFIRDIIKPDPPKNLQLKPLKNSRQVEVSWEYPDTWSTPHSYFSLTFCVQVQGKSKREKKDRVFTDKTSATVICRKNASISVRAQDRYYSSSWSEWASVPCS

T3: recombinant human IL-23 (p19/p40 heterodimer) (human, UniProt Q9NPF7 20-189; P29460 23-328)
T3 sequence (looked up) 1: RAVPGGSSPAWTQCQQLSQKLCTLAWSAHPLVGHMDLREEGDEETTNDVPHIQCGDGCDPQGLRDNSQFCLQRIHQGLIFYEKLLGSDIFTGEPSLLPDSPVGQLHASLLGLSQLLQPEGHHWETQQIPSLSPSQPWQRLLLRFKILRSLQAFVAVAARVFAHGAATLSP
T3 sequence (looked up) 2: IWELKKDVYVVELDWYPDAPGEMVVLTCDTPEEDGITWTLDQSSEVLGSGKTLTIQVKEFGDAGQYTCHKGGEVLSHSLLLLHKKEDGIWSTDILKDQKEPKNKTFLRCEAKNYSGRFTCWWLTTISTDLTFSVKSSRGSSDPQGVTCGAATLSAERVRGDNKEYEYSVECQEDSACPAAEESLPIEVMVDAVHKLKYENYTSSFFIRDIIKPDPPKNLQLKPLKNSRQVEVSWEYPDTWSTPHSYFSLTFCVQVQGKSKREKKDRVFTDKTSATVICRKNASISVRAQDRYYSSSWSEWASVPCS


Experiments:
human IL-12 protein [1] = target: T1, human IL-12 protein; assay: SPR (BIAcore); antibody captured on anti-Fc chip, antigen injected
Protocol: (§1) Binding of anti-IL-23p19-specific antibodies to IL-23 proteins was analyzed by Surface plasmon resonance (SPR) determined by BIAcore. Briefly, serial dilutions of the anti-IL-23p19 antibodies or the control antibodies were captured on an anti-mouse or human Fc chip (s) that were immobilized on the CM5 chip using amine coupling kit (GE Healthcare, Catalog NO: BR-1000-50, LOT NO: 2087295).
(§2) Next, serial dilutions of IL-23 recombinant protein, human p19/mouse p40 heterodimer protein, human IL-12 protein and human p40 subunit protein in the running buffer containing 10 mM HEPES, 150 mM NaCl, 3 mM EDTA, 0.005% Tween 20, pH 7.4, were injected at 50 μl/minute over immobilized antibody for 1 minute followed by 2 minutes dissociation. Each injection was followed by a regeneration step with a 60-second pulse of 10 mM Glycine-HCl, pH 1.7 buffer. Fitting of experimental data was done with BIAevaluation software (GE Healthcare), fit with a Langmuir 1:1 model to determine apparent binding.

[2] = target: T2, human p40 subunit protein; assay: as above
Protocol: as §1, §2

[3] = target: T3, recombinant human IL-23 (p19/p40 …); assay: cell-based or functional assay
[4] = target: T3, recombinant human IL-23 (p19/p40 …); assay: SPR (BIAcore 3000); antibody captured on anti-mouse IgG CM5 chip, hIL-23 0.156-40 nM, 1:1 global fit
Protocol: To ensure accurate measurements of the KD and IC50 endpoints in binding and functional assays, the antibodies were purified from the hybridoma culture supernatants prior to testing. The binding kinetics of the disclosed anti-IL-23p19-specific antibodies to recombinant human IL-23 was determined by Surface plasmon resonance (SPR) using BIAcore 3000 system docked with a CM5 chip previously immobilized via amine coupling chemistry with anti-mouse IgG antibody (GE Cat No. BR-1008-38). Flow cell 1 remained unmodified to serve as a reference cell for subtraction of systematic instrument noise and drift. Fc2-1 detection was run with double blanking (Fc1 and blank analyte buffer). Antibody samples were diluted to 50 μg/mL in HBS-EP (GE, catalog no: BR1001-88) and injected at a flow rate of 10 uL/minute for 1 minute. Next, hIL-23 (R&D systems, catalog no: 1290-IL/CF) diluted to 0.156-40 nM was injected at 50 μL/minute for 2 minutes, followed by 10 minutes dissociation. Data were analyzed in BIAEvalution software (GE Healthcare) by 1:1 binding model with global fit to determine apparent binding kinetics.

human IL-12 protein [5] = target: T1, human IL-12 protein; assay: ELISA; antigen coated directly on plate
Protocol: (§3) The binding specificity of the disclosed anti-IL-23p19 antibodies were also assessed by ELISA. Briefly, biotinylated IL-23 were captured via streptavidin coated ELISA plates. Human p19/mouse p40, human IL-12 and human p40 subunit were directly coated to ELISA plates. Purified antibodies were then added to the plates followed by detection by goat-anti-mouse IgG-HRP (Jackson ImmunoResearch, catalog no: 115-036-071, LOT NO: 147271). After addition of ABTS substrate (Moss Inc., catalog no: ABTS-1000, LOT NO: 03086202), ELISA plates were read using an ELISA plate reader (Biotek). The controls depicted in FIG. 3: PC1 refers to a reference antibody (known to be a p19 specific antibody, Biointron, LOT NO:20180926A04); PC2 refers to a reference antibody (known to be a p40 specific antibody, Biointron, LOT NO: 20180925A07); PC3 refers to a reference antibody (MT155, known as a p19 specific antibody from Mabtech, catalog no: 3457-6-100, code: 3457-6-1000), the negative controls are human IgG4 (Dendritics, catalog no: DDXCHO4P-100, LOT NO: DDXCH04-028) and the mouse IgG2a (generated by Novarock Biotherapeutics).

[6] = target: T2, human p40 subunit protein; assay: ELISA; antigen coated directly on plate
Protocol: as §3

[7] = target: T3, recombinant human IL-23 (p19/p40 …); assay: SPR (BIAcore 3000); captured antibody, hIL-23 0.156-40 nM, 1:1 global fit

Binder	binding result (human IL-12 protein [1])	binding result [2]	IC50 pM, STAT3 activation in DB reporter cells [3]	Top % of inhibition, STAT3 activation in DB reporter cells [3]	Kd [4]	koff [4]	kon [4]	binding result (human IL-12 protein [5])	binding result [6]	Kd [7]	koff [7]	kon [7]
Hu-2 18006B (antibody, V domains shown, Purified from hybridoma (Trianni mice); also called H-2 1800B (mIgG1)) VH: QVQLVQSGAEVKKPGASVKVSCKASGYTFTTYGISWVRQAPGQGLEWMGWISAYNGNTKYAQKLQGRVTMTTDTSTSTAYMELRSLRSDDTAVYYCAREWRAFYYYGLDVWGQGTTVTVSS VL: DIVMTQTPLSSPVTLGQPASISCRSSQSLEHSDGNTYLSWLQQRPNQPPRLLIYKVSNRFSGVPDRFSGSGAGTDFTLKISRVEAEDVGVYYCTQATQFPLTFGGGTKVEIK	no binding	no binding	158 pM	97%	41.6 pM	6.54e-05 s⁻¹	1.57e+06 M⁻¹ s⁻¹	–	–	–	–	–
Hu-6 18006B (purified from hybridoma) (antibody, V domains shown) VH: QVQLVQSGAEVKKPGASVKVSCKTSGYTFTYYGISWVRQAPGQGLEWMGLISAYNGNTNYGQKVQGRVTMTTDTSTSTAYMELRSLRSDDTAVYYCVTENINWRDAFDIWGQGTMVTVSS VL: EIVLTQSPDFQSVTPKEKVTITCRASQTIGSSLHWYQQKPDQSPKLLIKYASQSISGVPSRFSGSGSGTDFTLTINSLEAEDAAAYYCHQSSSLPYTFGQGTKLEIK	–	–	60.5 pM	99%	–	–	–	–	–	–	–	–
Hu-4 18006B (purified from hybridoma) (antibody, IgG2c, V domains shown) VH: QVHLVQSGAEVKKPGASVKVSCKASGYTFSSYGINWVRQAPGQGLEWMGWISAYSGNTDYSQHLQGRVTMTTDTSTNTAYMELRSLRSDDTAVYYCARASANWYDYFDPWGQGTLVTVSS VL: EIVLTQSPDFQSVTPKEKVTITCRASQTIGGSLHWYQQKPDQSPKLLITYASQSFSGVPSRFSGSGSGTDFTLTIHSLEAEDAATYYCHQSSILPYTFGQGTKLEIK	–	–	168 pM	99%	–	–	–	no binding	no binding	–	–	–
Hu-4 18006B** (recombinant, hIgG4) (antibody, V domains shown) VH: QVHLVQSGAEVKKPGASVKVSCKASGYTFSSYGINWVRQAPGQGLEWMGWISAYSGNTDYSQHLQGRVTMTTDTSTNTAYMELRSLRSDDTAVYYCARASANWYDYFDPWGQGTLVTVSS VL: EIVLTQSPDFQSVTPKEKVTITCRASQTIGGSLHWYQQKPDQSPKLLITYASQSFSGVPSRFSGSGSGTDFTLTIHSLEAEDAATYYCHQSSILPYTFGQGTKLEIK	no binding	no binding	157 pM	100%	–	–	–	–	–	57.2 pM	0.000143 s⁻¹	2.5e+06 M⁻¹ s⁻¹

Now from value to binder:

binding result (human IL-12 protein [1])	binding result [2]	IC50 pM, STAT3 activation in DB reporter cells [3]	Top % of inhibition, STAT3 activation in DB reporter cells [3]	Kd [4]	koff [4]	kon [4]	binding result (human IL-12 protein [5])	binding result [6]	Kd [7]	koff [7]	kon [7]	Binder
no binding	no binding	265 pM	100%	–	–	–	–	–	–	–	–	Hu-4 18006B* (recombinant, mIgG2a) (antibody, V domains shown) VH: QVHLVQSGAEVKKPGASVKVSCKASGYTFSSYGINWVRQAPGQGLEWMGWISAYSGNTDYSQHLQGRVTMTTDTSTNTAYMELRSLRSDDTAVYYCARASANWYDYFDPWGQGTLVTVSS VL: EIVLTQSPDFQSVTPKEKVTITCRASQTIGGSLHWYQQKPDQSPKLLITYASQSFSGVPSRFSGSGSGTDFTLTIHSLEAEDAATYYCHQSSILPYTFGQGTKLEIK
no binding	no binding	35.2 pM	99%	38.4 pM	0.000171 s⁻¹	4.44e+06 M⁻¹ s⁻¹	–	–	–	–	–	Hu-6 18006B* (recombinant mIgG2a) (antibody, V domains shown) VH: QVQLVQSGAEVKKPGASVKVSCKTSGYTFTYYGISWVRQAPGQGLEWMGLISAYNGNTNYGQKVQGRVTMTTDTSTSTAYMELRSLRSDDTAVYYCVTENINWRDAFDIWGQGTMVTVSS VL: EIVLTQSPDFQSVTPKEKVTITCRASQTIGSSLHWYQQKPDQSPKLLIKYASQSISGVPSRFSGSGSGTDFTLTINSLEAEDAAAYYCHQSSSLPYTFGQGTKLEIK
no binding	no binding	226 pM	99%	66.2 pM	9.89e-05 s⁻¹	1.49e+06 M⁻¹ s⁻¹	–	–	–	–	–	Hu-5 18006B (antibody, IgG2b, V domains shown, Purified from hybridoma) VH: QLQLQESGPGLVKPSETLSLTCTVSGGSISSSSFYWGWIRQPPGKGLEWIGSIYYSGSTYYNPSLKSRVTISVDTSKNQFSLKLSSVTAADTAVYFCARHGVRGVIPHFDYWGQGTLVTVSS VL: QTVLTQEPSFSVSPGGTVTLTCGLNSGSVSTIYYPSWYQQTPGQAPRALIYSTNTRSSGVPDRFSGSILGNKAALTITGAQADDESDYYCVLFLGSGLVFGGGTKLTVL
